Measured values taken from US20240026407A1, “MODIFICATION OF SAPONINS” (GLAXOSMITHKLINE BIOLOGICALS SA, priority 2020, published 2024).

What was measured:
Type in all cases: biochemical, Quillaja saponaria
[1] = Experiment 6-1: specificity of rhamnosidases towards other rhamnose residues (C3 saccharide rhamnose, C28 saccharide rhamnose); conditions: TBE 2%, pH 7.5, 30 degC, 18 h; LCMS/MS; negative controls 0.18, 0.17
[2] = Experiment 6-1: screening of rhamnosidases for derhamnosylation of saponins in treated bark extract (2%), QS-17 2310 to QS-18 2164 (PAR %); conditions: TBE 2%, pH 7.5, 30 degC, 18 h; TIC peak area ratio percent, LCMS/MS; negative controls 3.061, 2.429
[3] = Experiment 6-1: screening of rhamnosidases for derhamnosylation of saponins in treated bark extract (2%), QS-17 2296 to QS-18 2150 (PAR %); conditions: TBE 2%, pH 7.5, 30 degC, 18 h; TIC peak area ratio percent of rhamnosylated starting saponin to derhamnosylated product, LCMS/MS; negative controls 4.876, 5.225
[4] = Experiment 6-1: screening of rhamnosidases for derhamnosylation of saponins in treated bark extract (2%), desglucosyl-QS-17 2134 to QS-21 1988 (PAR %); conditions: TBE 2%, pH 7.5, 30 degC, 18 h; TIC peak area ratio percent, LCMS/MS; negative controls 2.719, 2.158

B1: 1046 (protein)
chain: MQYWQKQLKFTSIILLSGLTLGGITACAEQDIAQLQNVEAEPSPVEQEAQTSLATSFKHPPHEAKPLTWLHAMSGNMSKAGLTKDLEAIAEAGLGGTMLFNVTQGIPLGKVKFNSTEHIDLIGHLAAESQRLGLSFGMHNCDGWTSSGGPWVTPEHSMKQITYNETIVDGGNVNIKLAQPATMLDYYQDIAVIAYPSLATEITDFTVKPKITASDANFDAQIVQNNNLTDYSSITPSNEQPGWLQFSYQQPYTLRLIDMLLHSGRGLNVSLHISDDGKNFKQVDNLTLRRPGKSTYAFDEAFAGYTAKHFRLVSNKVMHIKELRLSSTPSLDNFSGRTAASRSDYQEFEDIGKPSAELVIDPESVINLTASLNSEGQLITTLPAGKWTIMRFGYTSTGAVNIPASREGTGLEVDKFSKAAFKSHYDAYITNVIDKLKVVAPNALYSIEIDSYEVGAQNWTHNYEQLFQAQFGYDLVPFLPLFAGKFVESPTVAEAVLWDTRDLNNKLITENYYGYFRELAHQDGIKTYLEPYGSGPFNELDVASKADLPMGEFWLDNNNFRLSASASAAHIYNKPIVAAEAFTQFPRNNWLFHPAEGKADSDKSWALGVNQHVFHRFAHQANTHVMPGMTMNRWGAHMDRTQTWWTVAGKPWFKYVARGQQLLRTGHNVADVLWFLGDATPTTCPEKDPISAVLPLNINYDCLNSEVLQRLSVEDGKVTLPHGSQYKILVLNNHQTLTLKSLKKIYQLAQQGAVIVGTPVEQLAGRFVSEQQRQELKMMVDYIWSQPTTYNISTKAKTSHGHTGVFPTHEIAKTSKIDWQKIYNEQNWPLDLAIKNADKFYFTHRRSAQYDIYFIFNDSAQAQVFDARFNISGKIPELWDADTGNITQLGAFSDNGQITRVPLKLGAYDSVFVVFEKSSKAVTALKPEFVLSQPELDVVLDAQQQPKVIKTTHEAIEITGAWQVEFDKFYGLDKSFTFEQLIDWKLHPEQTIQDYSGTATYQKTIDVPAELLADNKQIFLDLGKVKVAANVYLNDKLAGSAWHAPYRIDISNFVQAGKNKLTIKVANLWVNRLLADRKLPDTSGFKIARWQNPITPMPQWYVDNQPAPKSERVTFVTQVFMDDNEPRQSSGLIGPVQLSVRSKTQL
modifications: Catenovulum agarivorans
Which results are given for B1?
ratio PP/QS-21 [1]: 0.13; Peak57 (PAR %) [2]: 2.480%; QS-17 (PAR %) [3]: 4.051%; Peak75 (PAR %) [4]: 2.446%

B2: 1063 (protein, listed as Parabacteroides distasonis)
chain: MNNKINDATMRIKQSIYIYAFAALLLGGCKSNNELTIPTNLRTEYLTEPIGLDTSSPRFTWEYSGNEEGFKASRYEVRIGTSPDDLRPYAEGMALKPHTRYYWNVTVWDGEGRPCATSETASFETAKFDPSDWSASWITDHKDKEFEPAPLFRKSFPVGKEVKDARVYVASAGYHELFINGERVGTNYLDPGYTHFDKRILYVTHDVTSLLKQGDNAVAAVLGNGWYNEQSVAVWNFHEARWRDRPRLLCELRITYTDGTTEVIGSDETWKTSTGAYTYNNIYSGDKFDARLEEAGWKTAHFDDSKWEAALPAQAPAPLLVAQQMPGIRITEEVRPVSMKRFSDQLYVYSFPKNMSGLCRLKVKGEAGTRITLKHGELLKKDGRLEQGNINVYYHPVKPDEVFQMDVFTLKGTGEEEIFMPSFSYHGFQYVEVESSRPVTLTEENLTGLFMHTDVRPSGSFACSNPLLNKIWEATMQAYRSNLHSIPTDCPQREKNGWTADAHIAIDLGLLGFDGITLYEKWMDDIIDNQREAGEISGIIPSSGWGYGEWPGPVWDAVMFIIPNALYDYYGESRSIERLYPTMLRYLDYLKTKEKDGYLPFGLGDWVYWKATTNNEYTSTAYYYLDYKLMARFASLLGKDAAPYQEKANTLKSLINQKFFNAETGVYAEGTQTAQALALYLGLVPEGKEQLVADKLREVVAGNNYFLDFGLLGSKTVPAMLTKYGYIEDAMKMITKTEAPSWGYWVETMGYSTLPETWTLSPKFADASLNHVFMGDVSAWMMNQLAGINHDDSAPGFRHIRITPHFVKELDWAKGEYHSVRGRIASEWKREGDKVMLTVTIPADCSADIVVGDQTETVSAGTHTFTYPA
For B2, which “ratio PP/QS-21” value [1] is on record?
The value was 0.17.

And the “Peak57 (PAR %)” value [2]?
Its value is 2.473%.

And the “QS-17 (PAR %)” value [3]?
The value was 4.201%.

And the “Peak75 (PAR %)” value [4]?
The value was 2.240%.

B3: 1015 (protein)
chain: MITIIGLGVEHSERGCVTDNPHPRFSYAVRSDRSDVVVDGARLAVGDWTCEAGDQTAVAYDGKPLEPFTEYHVTLDVSTADGEHAHAETTFETGRLGQGWQGRWISDAGYDFVEKKVSPVPMMFRKPFTCDPTKSVRKARLYATAMGVYDFACDGKRIGDRYFAPGFTSYKTNLQYQTYDVTDMVGAGAVHTLLATVAGGWAVGSFVFTRKNRVSADRQALLAELRIEYTDGSVEVIGTDASWEVSESGPVRMADLYDGETYDAMMDPGADGSRCKDWRHASLENPRSRPRHIEADYGAGVVAHETLSPVSVARRAGGELVYDFGQNLAGVVRMRIANGRAGQTVVVRHAEILNPDGSLNTAFLRTAKATATYRCADADGFPEGVQEYGPRFTYMGFRYVSVRGVAEDDLRIEAVVLHSDLRPIGDFACSDERLNQLQHNIVWGAKSNLMDIPTDCPQRDERMGWTGDIAVFAPTACLNFDMSRFLEKWLRDVKAEQLKTGGIPNTVPVQGYGFPATMPEMAIDWWGDACVLVPWAVYRSSGDATVLHDMYDTMKRYVKACRFWAGLIGFGKSRYIWNTPSMLHFGDWVAPDVPKMSQWQKRAKWTATASLNNTSRTLARVAEVLGYDEDARAYDELADKVADAYCSVLTDGNGRLDNEFQTGYVLPLYLNMFPETVRGNAVDHLVKLIEDNDYCIGTGFPGTPYILFALADNGREDVAYRMLLNTACPSWLYEVGMGATTIWERWDGLDENGECPIGDDGTDLMISYNHYASGAVGAFLYQRVAGIEAIGAAYRSFRVRPVLGGGLTWAKAHVDTPYGRVGSAWSLDGGRFSITVEVPVGTTCELALPDGTTMQLSNGVHTATCEM
modifications: Bifidobacterium moukalabense
Which results are given for B3?
ratio PP/QS-21 [1]: 0.15; Peak57 (PAR %) [2]: 3.048%; QS-17 (PAR %) [3]: 4.132%; Peak75 (PAR %) [4]: 2.969%

B4: 1054 (protein, listed as Streptosporangium roseum)
chain: MEQAVAAALAVTDLRMDGRTEPLGLGESAPRFSWRLAAPGRGRAQSAYRIVVGRECDPLAEGAEVLWDTGEVGSSRTFDIAYEGAELRPRTRYQWRARAADEAGTWGDWSPAHWFETGLGDVTGWTADWIGTPAVPGSQRLPSLENVPRIWAAGPLGPSEARTGGFRTRFTVPGGARPLSAWLVIGGALDPQVHLNGMPVAGEVRDGAFVADAGDLIDSGENVLALRAGAVDGLPGGLCVRLEVVLEGRPALPQLVPVAGESAVTVTSDGRWRAAGEPAPGFEQPGFDDTGWSLAEEVGLHGDPPRGREPVADRPSPYLRREFDVPRPVSRARLYATALGVYELHLNGMRVSADHLAPGWTDYRHRVTYQTYDVTALVAEGGNALGAVLADGWYAGNISWFGSFQYGRRLALRAELEIVHDDGTTTRLRTDSDWRAGSGAIRYADLQNGERQDLAAEPVGWTACGFDDSGWLPAVPVSPPAGRPAAAVAPPVRVHEELAPRAVWESSPGVWIADFGQNVVGWVRLTARAGRDRPVVLRHAEVLDHEGALHLANLRSARATDEFLPRGGAGAETFEPRFTFHGFRYVEVSGLREPLTSDAIRARVAYAAMEPAGEFACSDERLNRLQGNIVRGQRGNFLSIPTDCPQRDERLGWTGDIWAFAPTALFNYDARAFLHSWLTDVVDAQAEDGAVTHVVPDVLSGRGLSPNPREAGSPGWGDAIVMLPWALYRLCGDADAVARYYGPMRRWLAYLDSRSTDGIFPDEGFGDWLSIGADTPKRLVGTAIFALSARQLAELAAALGRADDERACLEVYARVRRAFRAAFVQGPGVVESGTQTAYVLAITAGLLEEAELPRAAARLVRDIEARGGHLSTGFLGTPFLLDALTRSGHLGTAYRLLLQESFPSWLYPVVHGDATTMWERWDGWSHHRGLQDPGMNSFNHYAYGAVGAWMYETIGGLAPASPGYRAIVVRPRPGGELTWARTAYRTRHGRVEIAWRREGGDFTLEVRVPPNTRAEVWVPGGPAGVTESGRPAAESPGVALDRVVDGHAVYEVGSGSYAFHV
For B4, which “ratio PP/QS-21” value [1] is on record?
The value was 0.17.

What about the “Peak57 (PAR %)” value [2] of the same molecule?
The value was 2.487%.

And the “QS-17 (PAR %)” value [3]?
Its value is 4.348%.

And the “Peak75 (PAR %)” value [4]?
The value was 2.160%.

B5: 1074 (protein, listed as Actinoplanes sp.)
chain: MKGSFAVLAAALLLMPVSAPTAAAEPAVTLDGAHWIWYPEGDPATSAPAATRYLRRAFTVAASDIATAQLVVTGDDTIDVWVNGVRLAGSPRAADSWKRAVRVDLAGSLHPGSNTVALAARNTGGPAGVLGRLHAGSVDLVTDGSWRAATGVPENWADPAFSDVAWTTAKDLGAYGGGPWGAGVALPDPAAASPVSVTDLTVNRQADPVGVDTPRFGWRLAAGTGGQMQGRYQLTVGSTAGAADVWDSGIVASTASRDIGYSGPALGANRTYFWRVRVWDAQGRPSAWSAGARFDTGIALTAAFVGAPPAGDLSGADWIWYPEGDPATSAPAATRYFRRTVTLATSTTLVVAGDDTADVWVDGTQISASPRVTDSWKTAATVTVPAGTRTIAIAASNTTVGPAGVIAKLGGIVTDGSWRSATAAPGGWQQPGFDDSGWLAAKVLAAYGSGPWGGQVLVPAAAPYLRKGFAVTRPVARARLFATALGLHDTYLNGARVGTERLAPGWTDYTKRVQYRGYDVTAALRLGDNALAAQIGHGWYSGNIGFAGSRRYGTQPWYAAQLIIEYTDGTSATVQTDGSWRTAPGNILGDDLYAGETQDARLIRSGWNTAGFDDSDWVPVTVQNGARPTLVPQVDPGVTVQQELRPVAVTQPKPGVFIADLGQNFTGWDRLRVSGPAGTTVTLRHGEILNADGTLYTANLRAAQATDRFTLAGTGTETFEPRFTVHGYRYVEITGFPGTPDADSLTGLAAWTGGAATGMFTSSDSTLNQVQRAILWGARSNLLSIPTDCPQRDERLGWTGDIAAFVATSTFNFDTYGLLAKFATDLTDAQHSDGAFTDVAPDVLGGAGKAGWGDAGVIVPYTVWQRFGDLAPADRNFAAMARWVDYLRSTAGADLIRNQDTYGDWLNVDDGTGNDLTSTAFFGWSARLVSRMAAATGRTAQAATYGTLADQIAAAFTGRFVHADNTVGTGSETGYVLALAFGLVPGDRVQAVADRLAAKVASRNGHLSVGFMGVENLLPVLADHGHADVAYRILQQPDYPGWGYMIARGATTIWERWDGIRPDGSLQDPGMNSFNHYGLGSVGDWLYREVGGVAPAAPGYAQVLLAPKPGGSLTSASAELTTTFGRVRSAWSRSGSAVTLQVVVATGTTATVRVPGTAVTSAPAEAVPVGGTSYVVGAGSYTFTSTL
For B5, which “ratio PP/QS-21” value [1] is on record?
Its value is 0.18.

What about the “Peak57 (PAR %)” value [2] of the same molecule?
The value was 1.681%.

What about the “QS-17 (PAR %)” value [3] of the same molecule?
Its value is 4.443%.

And the “Peak75 (PAR %)” value [4]?
Its value is 2.312%.
